Experimental data: the supplement of paper PMC10567573
± gives the standard deviation.

Experiment: protein stability index of a GFP-peptide fusion (GPS, HEK-293T) (PSI 1-6); higher = more stable
Conditions: c terminus: a fixed tail appended
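Also: 24-mer peptide tiles fused after GFP, lentivirally expressed, FACS-sorted into six equal bins by GFP/DsRed ratio, decoded by Illumina sequencing, PSI is the read-weighted mean bin number.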

Q: With LWKMKPRRNLEEDDYLHKDTGETS [STEAP1] as the sequence, how does the protein stability index (treatment: DMSO) read?
A: 4.07 ± 0.3

Q: And the protein stability index (treatment: MLN4924 1 uM, 8 h)?
A: 4.08 ± 0.42

Q: Which protein stability index (treatment: DMSO) does the source give for AGRWLWGAQPCLLLPIVPLSWLVW [ADAMTS4] here?
A: 2.98 ± 1.5

Q: And the protein stability index (treatment: MLN4924 1 uM, 8 h)?
A: 3.24 ± 2.6

Q: What does the source list for DEGRLLLEFDLLIFSFGQLPLALV [SOAT2]?
A: protein stability index (treatment: DMSO): 3.16 ± 0.11; protein stability index (treatment: MLN4924 1 uM, 8 h): 2.81 ± 0.46

Q: Which protein stability index (treatment: DMSO) does the source give for NAGQSDNRSLAEACSEGDVNAVRK [ANKRD17] here?
A: 5.56 ± 0.15

Q: And the protein stability index (treatment: MLN4924 1 uM, 8 h)?
A: 5.46 ± 0.15

Q: With TVLKQIAPEYFEKNEPYLEAACND [DENND6A] as the sequence, how does the protein stability index (treatment: DMSO) read?
A: 3.09 ± 0.05

Q: What about the protein stability index (treatment: MLN4924 1 uM, 8 h) of the same sequence?
A: 3.26 ± 0.43

Q: For EAGIKVHDVRLNGSAAGHVLVKDN [TENT5C], which protein stability index (treatment: DMSO) is on record?
A: 4.42 ± 0.17

Q: What about the protein stability index (treatment: MLN4924 1 uM, 8 h) of the same sequence?
A: 4.61 ± 0.15

Q: For PNLSPHAPWNYHYHCPGSPDHQVP [TRAF3IP2], which protein stability index (treatment: DMSO) is on record?
A: 3.29 ± 0.34

Q: And the protein stability index (treatment: MLN4924 1 uM, 8 h)?
A: 3.54 ± 0.32

Q: For AFQNDVYEWARDHRAHHKFSETHA [SCD], which protein stability index (treatment: DMSO) is on record?
A: 2.65 ± 0.22

Q: What about the protein stability index (treatment: MLN4924 1 uM, 8 h) of the same sequence?
A: 2.69 ± 0.33

Q: With QPTIVEALLGYEMVQVACGASHVL [NEK8] as the sequence, how does the protein stability index (treatment: DMSO) read?
A: 2.75 ± 0.45

Q: And the protein stability index (treatment: MLN4924 1 uM, 8 h)?
A: 2.74 ± 0.7

Q: For IDFLRVVRNQQSLAVSNMGARSKG [PTPN9], which protein stability index (treatment: DMSO) is on record?
A: 2.76 ± 0.17

Q: And the protein stability index (treatment: MLN4924 1 uM, 8 h)?
A: 3.46 ± 0.098

Q: Which protein stability index (treatment: DMSO) does the source give for EIPWTSLTRKGLVRVVFFPLFSNW [PHTF1] here?
A: 3.09 ± 0.89

Q: What about the protein stability index (treatment: MLN4924 1 uM, 8 h) of the same sequence?
A: 2.84 ± 0.23

Q: Which results are given for SSSSLGNKLQTLSPSHKGIAAPHA [ZC2HC1A]?
A: protein stability index (treatment: DMSO): 3.81 ± 0.22; protein stability index (treatment: MLN4924 1 uM, 8 h): 3.97 ± 0.26

Q: For FFVANKYWRYDEYKRSMDPGYPKM [MMP1], which protein stability index (treatment: DMSO) is on record?
A: 2.15 ± 0.33

Q: And the protein stability index (treatment: MLN4924 1 uM, 8 h)?
A: 2.16 ± 0.33

Q: With KLNKPPETLITTIDSSSSWWTNWV [CYB5A] as the sequence, how does the protein stability index (treatment: DMSO) read?
A: 2.64 ± 0.23

Q: And the protein stability index (treatment: MLN4924 1 uM, 8 h)?
A: 2.47 ± 0.35

Q: With NQLLVADVKRLGKQNARFLTSMRR [STX11] as the sequence, how does the protein stability index (treatment: DMSO) read?
A: 2.97 ± 0.079

Q: What about the protein stability index (treatment: MLN4924 1 uM, 8 h) of the same sequence?
A: 3.08 ± 0.41

Q: Which protein stability index (treatment: DMSO) does the source give for ERRRRFNINDRIKELGTLIPKSSD [TFE3] here?
A: 4.04 ± 0.099

Q: And the protein stability index (treatment: MLN4924 1 uM, 8 h)?
A: 4.09 ± 0.2

Q: What does the source list for EDEEEEEGGEGEKEGEGEVGGEAV [TRIM55]?
A: protein stability index (treatment: DMSO): 5.74 ± 0.24; protein stability index (treatment: MLN4924 1 uM, 8 h): 5.7 ± 0.27

Q: For ICSSLQNLEKTIFCLQKLISLHPF [C8orf76], which protein stability index (treatment: DMSO) is on record?
A: 3.28 ± 1

Q: What about the protein stability index (treatment: MLN4924 1 uM, 8 h) of the same sequence?
A: 2.65 ± 0.39

Q: What does the source list for EPVAAEPKQSGSFRYLQGMLEAGE [PDLIM4]?
A: protein stability index (treatment: DMSO): 4.6 ± 0.11; protein stability index (treatment: MLN4924 1 uM, 8 h): 4.6 ± 0.11

Q: What does the source list for RAGGGGGGDYGLVTAGCGFGKDFR [PPTC7]?
A: protein stability index (treatment: DMSO): 3.33 ± 0.51; protein stability index (treatment: MLN4924 1 uM, 8 h): 3.13 ± 0.21

Q: For KVESGAWIGYEHTSFCGQQFILER [CRYBA1], which protein stability index (treatment: DMSO) is on record?
A: 2.18 ± 0.26

Q: And the protein stability index (treatment: MLN4924 1 uM, 8 h)?
A: 2.18 ± 0.19

Q: For DVNNLDPDLRSLFSRAGISEAQLT [WAS], which protein stability index (treatment: DMSO) is on record?
A: 3.07 ± 0.41

Q: And the protein stability index (treatment: MLN4924 1 uM, 8 h)?
A: 3.34 ± 0.48

Q: With GCILQWKKIYCRICMAQIAYSGNT [ZBED1] as the sequence, how does the protein stability index (treatment: DMSO) read?
A: 2.23 ± 0.81

Q: What about the protein stability index (treatment: MLN4924 1 uM, 8 h) of the same sequence?
A: 2.28 ± 0.76

Q: For GHRSIYLALKLPDGSYALNGEYTL [ADAMTS4], which protein stability index (treatment: DMSO) is on record?
A: 2.96 ± 0.94

Q: What about the protein stability index (treatment: MLN4924 1 uM, 8 h) of the same sequence?
A: 2.63 ± 0.67

Q: Which results are given for AESLKGKLEEERAKLHDVELHQVA [GNB5]?
A: protein stability index (treatment: DMSO): 5.02 ± 0.33; protein stability index (treatment: MLN4924 1 uM, 8 h): 5.23 ± 0.29

Q: What does the source list for KIQDLIDDKDALVFVLIDEVESLT [TRIP13]?
A: protein stability index (treatment: DMSO): 2.46 ± 0.36; protein stability index (treatment: MLN4924 1 uM, 8 h): 2.36 ± 0.11

Q: Which protein stability index (treatment: DMSO) does the source give for WKALSEFALQSDLDQPAFQQLVSF [ISL2] here?
A: 2.21 ± 0.14

Q: What about the protein stability index (treatment: MLN4924 1 uM, 8 h) of the same sequence?
A: 2.31 ± 0.37

Q: Which results are given for CSVFPATDAPEQFISQVTVLKYFS [PLK2]?
A: protein stability index (treatment: DMSO): 2.49 ± 0.55; protein stability index (treatment: MLN4924 1 uM, 8 h): 2.56 ± 0.5

Q: With ELDNPMQQKWTKPARAGSEVEWTE [C2CD2L] as the sequence, how does the protein stability index (treatment: DMSO) read?
A: 4.1 ± 0.36

Q: What about the protein stability index (treatment: MLN4924 1 uM, 8 h) of the same sequence?
A: 4.25 ± 0.21

Q: What does the source list for QHNLCRKCASDIFQASNPYLPTRG [TRIM55]?
A: protein stability index (treatment: DMSO): 2.29 ± 0.26; protein stability index (treatment: MLN4924 1 uM, 8 h): 2.45 ± 0.22

Q: For EPGAGLGIGDMAFEGDMGAAGGDG [PSD2], which protein stability index (treatment: DMSO) is on record?
A: 5.72 ± 0.23

Q: What about the protein stability index (treatment: MLN4924 1 uM, 8 h) of the same sequence?
A: 5.61 ± 0.41

Q: Which results are given for PENQEYFEKHRWPPVWYLKEEDHY [RHOBTB2]?
A: protein stability index (treatment: DMSO): 3.42 ± 0.23; protein stability index (treatment: MLN4924 1 uM, 8 h): 3.57 ± 0.41

Q: For HGNEVLGRELLLLLVQFVCQEYLA [CPXM2], which protein stability index (treatment: DMSO) is on record?
A: 3.11 ± 1.1

Q: What about the protein stability index (treatment: MLN4924 1 uM, 8 h) of the same sequence?
A: 2.98 ± 1.2

Q: What does the source list for GNPEPVSYYIIQHKPKNSEELYKE [PTPRD]?
A: protein stability index (treatment: DMSO): 3.77 ± 0.34; protein stability index (treatment: MLN4924 1 uM, 8 h): 3.47 ± 0.54

Q: For EDGHRTSTSAVPNLFVPLNTNPKE [ADD1], which protein stability index (treatment: DMSO) is on record?
A: 4.89 ± 0.24

Q: What about the protein stability index (treatment: MLN4924 1 uM, 8 h) of the same sequence?
A: 5.07 ± 0.11

Q: Which protein stability index (treatment: DMSO) does the source give for VGGGFGGGFGGGDGGLLSGNEKIT [KRT15] here?
A: 4.04 ± 0.39

Q: And the protein stability index (treatment: MLN4924 1 uM, 8 h)?
A: 4.16 ± 0.14

Q: With KTDFGSCLLQPPSCPNGMSAENGL [DLC1] as the sequence, how does the protein stability index (treatment: DMSO) read?
A: 3.94 ± 0.14

Q: And the protein stability index (treatment: MLN4924 1 uM, 8 h)?
A: 3.87 ± 0.19

Q: Which results are given for NDYICPATNQCTIDKNRRKSCQAC [ESR2]?
A: protein stability index (treatment: DMSO): 4.44 ± 0.21; protein stability index (treatment: MLN4924 1 uM, 8 h): 4.83 ± 0.17

Q: With EKAFIAHFQDNLHSVNRDLNELER [MED27] as the sequence, how does the protein stability index (treatment: DMSO) read?
A: 3.85 ± 0.23

Q: What about the protein stability index (treatment: MLN4924 1 uM, 8 h) of the same sequence?
A: 4.09 ± 0.2

Q: Which protein stability index (treatment: DMSO) does the source give for PAHLYFQAHGSEGLTFQGLLPLTE [PLEKHN1] here?
A: 2.85 ± 0.045

Q: What about the protein stability index (treatment: MLN4924 1 uM, 8 h) of the same sequence?
A: 2.9 ± 0.083

Q: Which protein stability index (treatment: DMSO) does the source give for TQHKFICEQCGKCKCGECTAPRTL [SPRY1] here?
A: 4 ± 0.22

Q: And the protein stability index (treatment: MLN4924 1 uM, 8 h)?
A: 3.87 ± 0.18

Q: What does the source list for PSCQETRDYAPPSRGYAYRDNGHS [RBMY1A1]?
A: protein stability index (treatment: DMSO): 4.18 ± 0.18; protein stability index (treatment: MLN4924 1 uM, 8 h): 4.21 ± 0.21

Q: For MAATCEISNIFSNYFSAMYSSEDS [ELF3], which protein stability index (treatment: DMSO) is on record?
A: 2.29 ± 0.22

Q: And the protein stability index (treatment: MLN4924 1 uM, 8 h)?
A: 2.3 ± 0.21

Q: Which protein stability index (treatment: DMSO) does the source give for DGLDLDWEYPGSQGSPAVDKERFT [CHIT1] here?
A: 4.94 ± 0.21

Q: What about the protein stability index (treatment: MLN4924 1 uM, 8 h) of the same sequence?
A: 5.04 ± 0.19

Q: For SDVICDFPFQAMVQFHRHHGQEGS [GMPPB], which protein stability index (treatment: DMSO) is on record?
A: 3.12 ± 0.32

Q: And the protein stability index (treatment: MLN4924 1 uM, 8 h)?
A: 3.19 ± 0.28
